In general, Kd refers to the free concentration of one partner at which half of the binding sites on the other are occupied at equilibrium, for simple one-to-one binding. The koff is a measure of how fast the partners let go of each other. By kon is commonly meant the rate constant with which the complex forms.

Test [1] addresses human EpCAM expressed on human carcinoma cells (PC3, MCF7) (human) (UniProt P16422). Kind of test: NIR flow cytometry, IRDye 800CW-labeled isotype control mAb on PC3 cells. Background: A flow cytometer gives signals particle by particle.
Test [2] shares this target. Kind of test: flow cytometry on MCF7 cells, mAb concentration 160 ng/ml, fluorescently labeled secondary antibody, 10,000 cells.
Test [3] shares this target. Kind of test: flow cytometry on MCF7 cells, mAb concentration 6.4 ng/ml, fluorescently labeled secondary antibody, 10,000 cells.
Test [4] has the same target. Kind of test: flow cytometry on MCF7 cells, mAb concentration 32 ng/ml, fluorescently labeled secondary antibody, 10,000 cells.
The target of test [5] is recombinant human (rhu) EpCAM/Fc (960-EP, R&D Systems) (human) (UniProt P16422). Kind of test: flow cytometry of E. coli displaying scFv (APEx), EpCAM-Fc then fluorescent secondary antibody.
For test [6] the target is unchanged. As to the kind of experiment: Biacore kinetic analysis of scFv. A general note: In SPR one partner is held on a chip, and binding of the other changes the refractive index at the surface.
Test [7] has as its target human EpCAM expressed on human carcinoma cells (PC3, MCF7) (human) (UniProt P16422). As to the kind of experiment: flow cytometry on PC3 cells, scFv then fluorophore-conjugated secondary antibody.
The target in test [8] is T1, murine EpCAM on mouse 4T1 mammary carcinoma cells (mouse, UniProt Q99JW5 24-315).
T1 construct: whole, on cells; also called mouse EpCAM
T1 sequence (looked up): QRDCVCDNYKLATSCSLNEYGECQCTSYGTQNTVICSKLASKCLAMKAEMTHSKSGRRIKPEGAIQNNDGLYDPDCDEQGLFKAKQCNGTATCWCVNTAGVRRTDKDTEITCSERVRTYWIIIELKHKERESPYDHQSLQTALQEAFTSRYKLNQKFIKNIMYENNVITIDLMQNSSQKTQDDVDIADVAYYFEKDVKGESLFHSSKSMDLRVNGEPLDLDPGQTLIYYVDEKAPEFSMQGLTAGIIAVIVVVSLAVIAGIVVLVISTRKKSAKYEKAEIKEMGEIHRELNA
Kind of test: flow cytometry on mouse 4T1 cells, PE-labeled anti-mouse IgG. As to the method: To determine whether mAbs specific for human EpCAM cross-react with murine EpCAM, the human cell line MCF7 (as described above) and 4T1 cells (mouse mammary carcinoma, CRL2539™, ATCC) were used. Hybridoma cells were grown and mAbs purified as above-described. Rat anti-mouse EpCAM, mAb G8.8 (Developmental Studies Hybridoma Bank, University of Iowa, Iowa City, Iowa) was utilized as a positive control for detection of EpCAM on the surface of 4T1 cells. Following incubation (20 min, on ice) with mAb, cells were washed with PBS-BSA and either DyLIGHT-488 conjugated donkey anti-rat IgG (Jackson ImmunoResearch) or PE-conjugated donkey F(ab′) 2 anti-mouse IgG (Jackson ImmunoResearch) was added at 5 μg per sample and incubated for an additional 20 min for detecting cells bound by rat anti-mouse or mouse anti-human EpCAM mAb, respectively. Cells were washed again with PBS-BSA and fixed in 2% paraformaldehyde prior to analyzing (10,000 events) on a BD FACSCalibur Flow Cytometer (BD Biosciences) using WinMDI2.9 software.

The target in test [9] is T2, human EpCAM expressed on human carcinoma cells (PC3, MCF7) (human, UniProt P16422 24-314).
T2 construct: whole, on cells; also called native EpCAM; surface expressed EpCAM
T2 sequence (looked up): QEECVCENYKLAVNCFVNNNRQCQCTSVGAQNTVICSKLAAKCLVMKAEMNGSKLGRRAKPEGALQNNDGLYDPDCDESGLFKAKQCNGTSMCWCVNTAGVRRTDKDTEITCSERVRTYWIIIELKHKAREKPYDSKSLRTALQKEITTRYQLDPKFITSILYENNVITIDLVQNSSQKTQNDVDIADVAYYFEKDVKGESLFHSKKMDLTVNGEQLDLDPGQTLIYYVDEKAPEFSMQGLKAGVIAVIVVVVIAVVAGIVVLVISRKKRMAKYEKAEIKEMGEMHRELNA
Kind of test: flow cytometry on PC3 cells, 5 µg/ml mAb, PE-labeled anti-mouse IgG. As to the method: PC3 cells (human prostate adenocarcinoma line, CRL1435™, ATCC, Manassas, Va.), grown to 80%-100% confluency in DMEM with 10% FBS, were treated with Trypsin-EDTA and resuspended in PBS containing 2% bovine serum albumin (BSA). One million cells per well were labeled with 5 μg/ml of mAb in a 200-μl volume and incubated on ice for 20 min. After washing with PBS-BSA, phycoerythrin (PE)-conjugated donkey F(ab′)2 anti-mouse IgG (Jackson ImmunoResearch, West Grove, Pa.) at 5 μg per sample was added for an additional 20-min incubation. Cells were washed again with PBS-BSA and fixed in 2% paraformaldehyde prior to analyzing (10,000 events) on a BD FACSCalibur Flow Cytometer (BD Biosciences, San Jose, Calif.). Analyses of mean fluorescence intensities (MFI) were performed using WinMDI2.9 software.

For test [10], the target named is T3, recombinant human (rhu) EpCAM/Fc (960-EP, R&D Systems) (human, UniProt P16422 24-265).
T3 construct: Bought fusion protein; not shown: Fc part
T3 sequence (looked up): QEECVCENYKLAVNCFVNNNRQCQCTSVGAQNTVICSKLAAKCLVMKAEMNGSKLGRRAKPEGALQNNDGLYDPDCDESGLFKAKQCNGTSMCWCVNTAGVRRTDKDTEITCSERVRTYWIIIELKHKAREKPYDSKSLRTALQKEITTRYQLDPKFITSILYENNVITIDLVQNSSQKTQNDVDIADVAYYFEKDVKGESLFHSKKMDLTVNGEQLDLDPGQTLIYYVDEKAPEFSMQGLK
Kind of test: SPR, ratio of Fab KD values, reference mAb 9601 Fab. The protocol: (§1) In order to discriminate between monovalent and multivalent interactions on quantitative SPR measurements of KD, the binding affinities of the Fab fragments of mAbs were measured using SPR and a Biacore T100 instrument (GE Healthcare). Two flow cells of a CM5 chip were coated with goat anti-human IgG (Fc-specific) (Jackson ImmunoResearch) to approximately 8000 resonance units (RU) with an NHS/EDC Amine Coupling Kit BR-1000-50 (GE Healthcare). All measurements were made at 25° C. using HBS-EP+(10 mM HEPES, 150 mM NaCl, 3 mM EDTA, 0.05% v/v Tween 20, pH 7.4) as running buffer. EpCAM/Fc ligand (R&D Systems) was diluted in HBS-EP+ to 0.5 μg/ml and applied to the coated chip surface. Fab fragments were then tested at five different molar concentrations starting at 50 nM after performing a two-fold dilution series. Flow cells were regenerated with 100 mM phosphoric acid. All samples were applied in duplicate.

Test [11] has as its target T3, recombinant human (rhu) EpCAM/Fc …. Kind of test: SPR (Biacore T100), EpCAM/Fc captured on anti-human IgG Fc chip, Fab as analyte, 25 C. As to the method: as §1
Test [12] has the same target. As to the kind of experiment: SPR (Biacore T100), EpCAM/Fc captured, Fab as analyte; Fab fragment, not IgG. As to the method: as §1
Test [13] has the same target. As to the kind of experiment: Biacore kinetic analysis of scFv.

In test [1], “in-house IgG1 isotype control mAb 69 (antibody)” returned a Biological Activity, % (percentage of PC3 cells stained) of 3.2% and an MFI of 125 MFI units.

“Veridex anti-EpCAM mAb VU-1D9 (antibody)”: the MFI in [2] was determined as 321; in test [3] it was 38; in test [4], 106.

For the molecule “control scFv with no affinity to EpCAM (displayed on E. coli)”, the MFI in test [5] is 13 MFI.

“commercial IgG2b isotype control mAb (BD Pharmingen) (antibody)”: in test [1], the Biological Activity, % (percentage of PC3 cells stained) came out at 0.7% and the MFI turned out to be 149 MFI units.

B1: anti-EpCAM scFv 7 (scFv, V domains shown, not shown: small tags and cut ends)
VH: QVQLQQSGPELEKPGGSVKISCKASGYSFTGYNMNWVKQSNGKSLEWIGNIDPYNGGSGFDQKFKGKATLTVDTSSSTAYMHLKSLTSEDSAVYYCAREYGSNFDYWGQGTTLTVSS
VL: DIQMTQSTSSLSASLGDRVTISCRASQDIGTYLNWYQQQADGTFKLLIYYTSRLHSGIPSRFSGSGSGTDFSLTISNLGQEDIATYFCQQGNTLPWTFGGGTKLEIK
modifications: linker not given
For the molecule B1, the equilibrium dissociation constant (Kd) in test [6] is 4.14 nM. Also, the MFI in test [5] amounted to 170 MFI; in [7], 380 MFI.

B2: anti-EpCAM monoclonal antibody 7 (antibody, V domains shown)
VH: QVQLQQSGPELEKPGGSVKISCKASGYSFTGYNMNWVKQSNGKSLEWIGNIDPYNGGSGFDQKFKGKATLTVDTSSSTAYMHLKSLTSEDSAVYYCAREYGSNFDYWGQGTTLTVSS
VL: DIQMTQSTSSLSASLGDRVTISCRASQDIGTYLNWYQQQADGTFKLLIYYTSRLHSGIPSRFSGSGSGTDFSLTISNLGQEDIATYFCQQGNTLPWTFGGGTKLEIK
notes: In-house mouse IgG1 from hybridoma; IRDye 800CW (and DOTA) labeled in the NIR flow cytometry; also called mAb 7
With B2, the binding result in [8] is on record as “no binding”. In addition, the “MFI fold increase relative to PE-conjugated secondary antibody alone” value in test [9] amounted to 3.9 fold.

B3: Fab fragment of mAb 7 (Fab, V domains shown)
VH: QVQLQQSGPELEKPGGSVKISCKASGYSFTGYNMNWVKQSNGKSLEWIGNIDPYNGGSGFDQKFKGKATLTVDTSSSTAYMHLKSLTSEDSAVYYCAREYGSNFDYWGQGTTLTVSS
VL: DIQMTQSTSSLSASLGDRVTISCRASQDIGTYLNWYQQQADGTFKLLIYYTSRLHSGIPSRFSGSGSGTDFSLTISNLGQEDIATYFCQQGNTLPWTFGGGTKLEIK
notes: Fab made by ficin digestion of the mouse IgG1 mAb 7; also called 7 Fab; mAb 7 Fab fragment
Consider B3, for which the “fold increase in affinity above mAb 9601” value in test [10] turned out to be 7 fold. Besides, in test [11], the Kd came to 2.3 nM, the koff is 0.00099 s⁻¹ and the kon came out at 430000 M⁻¹ s⁻¹.

B4: Fab fragment of mAb 153 (Fab, V domains shown)
VH: QVQLQQSGAELVKPGTSVKLSCKASGYNFTSYWINWVKLRPGQGLEWIGDIYPGSGNSHYNEKFKSKATLTVDTSSSTAYMQLSSLASGDSALYYCARNYYGSSPFPMDYWGQGTSVTVSS
VL: DIVMTQSPSSLIVTAGEKVTMSCKSSQSLLNSGNQKNYLTWYQQKPGQPPKLLIYWASTRESGVPDRFTGSGSGTDFTLTLNSAQAEDLAVYYCQNDYTYPLTFGAGTKLEIK
B4: the “fold increase in affinity above mAb 9601” value in test [10] was found to be 28 fold. The Kd in test [12] was found to be 0.54 nM. Moreover, in [11], the Kd came out at 0.53 nM, the koff stood at 0.00012 s⁻¹ and the kon is 220000 M⁻¹ s⁻¹.

B5: anti-EpCAM monoclonal antibody 153 (antibody, V domains shown)
VH: QVQLQQSGAELVKPGTSVKLSCKASGYNFTSYWINWVKLRPGQGLEWIGDIYPGSGNSHYNEKFKSKATLTVDTSSSTAYMQLSSLASGDSALYYCARNYYGSSPFPMDYWGQGTSVTVSS
VL: DIVMTQSPSSLIVTAGEKVTMSCKSSQSLLNSGNQKNYLTWYQQKPGQPPKLLIYWASTRESGVPDRFTGSGSGTDFTLTLNSAQAEDLAVYYCQNDYTYPLTFGAGTKLEIK
notes: In-house mouse IgG1 from hybridoma; In the NIR flow cytometry it carried IRDye 800CW (and DOTA)
Take B5: the binding result in [8] is “no binding”. In addition, the “MFI fold increase relative to PE-conjugated secondary antibody alone” value in test [9] is 4.8 fold.

B6: anti-EpCAM scFv 153 (scFv, V domains shown)
VH: QVQLQQSGAELVKPGTSVKLSCKASGYNFTSYWINWVKLRPGQGLEWIGDIYPGSGNSHYNEKFKSKATLTVDTSSSTAYMQLSSLASGDSALYYCARNYYGSSPFPMDYWGQGTSVTVSS
VL: DIVMTQSPSSLIVTAGEKVTMSCKSSQSLLNSGNQKNYLTWYQQKPGQPPKLLIYWASTRESGVPDRFTGSGSGTDFTLTLNSAQAEDLAVYYCQNDYTYPLTFGAGTKLEIK
For B6, the Kd in test [13] worked out at 0.21 nM.
